In article PMC3794858, “NECAP 1 Regulates AP-2 Interactions to Control Vesicle Size, Number, and Cargo During Clathrin-Mediated Endocytosis” (PLoS Biology, 2013):
Where no end group is shown, it is not given here.

T1: 15N-labeled PHear (NECAP 1 PHear domain, GST cleaved) (mouse, UniProt Q9CR95 1-133)
T1 chain: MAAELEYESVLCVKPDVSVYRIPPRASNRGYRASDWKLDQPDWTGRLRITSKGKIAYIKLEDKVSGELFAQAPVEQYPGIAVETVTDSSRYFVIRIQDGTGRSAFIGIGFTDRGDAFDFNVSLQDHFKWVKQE

T2: 15N-labeled PHear (NECAP 1 PHear domain, GST cleaved) (mouse, UniProt Q9CR95 1-133)
T2 construct: NECAP 1, PHear domain, residues 1-133; Uniformly 15N-labelled for NMR; source: E. coli BL21, purified (GST fusion cleaved with thrombin, S75 gel filtration)
T2 sequence (looked up): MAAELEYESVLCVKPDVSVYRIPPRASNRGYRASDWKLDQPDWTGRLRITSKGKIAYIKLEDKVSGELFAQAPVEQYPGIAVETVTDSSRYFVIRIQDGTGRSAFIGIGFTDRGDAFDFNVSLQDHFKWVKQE


Columns and labels:
[1] = biological target: T1, 15N-labeled PHear (NECAP 1 PHear …); test: NMR; L47 peak
[2] = biological target: T1, 15N-labeled PHear (NECAP 1 PHear …); test: NMR; I106 peak
[3] = biological target: T2, 15N-labeled PHear (NECAP 1 PHear …); test: NMR titration; 1H-15N HSQC of 15N-labeled PHear (0.15 mM) titrated with unlabeled peptide, 30°C, 25 mM sodium phosphate pH 7.2, 75 mM NaCl, 0.5 mM EDTA, 3 mM DTT; conditions: both partners purified

Kd [1] [µM]	Kd [2] [µM]	Kd [3] [µM]	binding result [3]	Binder
540	420	480	–	Ac-SQGDLLGDLLNLDLPPVN (peptide from the linker of β2-adaptin; the printed peptide has no G there; also called unlabeled β2-linker; source: synthetic peptide (Sheldon Biotechnology Center, McGill University), HPLC purified) [β2-linker peptide (Ac-SQGDLLGDLLNLDLPPVN)]
–	–	–	binds	Ac-VDIFGDAFAAS (peptide derived from AP180; also called AP-180 peptide; FxDxF-motif peptide derived from AP180; source: synthetic peptide (Sheldon Biotechnology Center, McGill University), HPLC purified) [AP180 FxDxF-motif peptide (Ac-VDIFGDAFAAS)]
